Data as given in patent US20120114652A1 (AbbVie / Abbott, published 2012).

B4: mouse PAI-1 (other)
chain: ALPLRESHTAHQATDFGVKVFQQVVQASKDRNVVFSPYGVSSVLAMLQMTTAGKTRRQIQDAMGFKVNEKGTAHALRQLSKELMGPWNKNEISTADAIFVQRDLELVQGFMPHFFKLFQTMVKQVDFSEVERARFIINDWVERHTKGMINDLLAKGAVDELTRLVLVNALYFSGQWKTPFLEASTHQRLFHKSDGSTVSVPMMAQSNKFNYTEFTTPDGLEYDVVELPYQGDTLSMFIAAPFEKDVHLSALTNILDAELIRQWKGNMTRLPRLLILPKFSLETEVDLRGPLEKLGMPDMFSATLADFTSLSDQEQLSVAQALQKVRIEVNESGTVASSSTAFVISARMAPTEMVIDRSFLFVVRHNPTETILFMGQVMES
notes: bought (US Biological); also called murine PAI-1

Columns and labels:
[1] = biological target: T1, latent human PAI-1 (human, UniProt P05121 24-402); test: competition ELISA (DELFIA), IgG coated, competitor titrated against biotinylated active human PAI-1
T1 construct: also called latent PAI-1

[2] = biological target: T2, rat PAI-1 (rat, UniProt P20961 24-402); test: as above
T2 construct: bought (US Biological)
T2 sequence: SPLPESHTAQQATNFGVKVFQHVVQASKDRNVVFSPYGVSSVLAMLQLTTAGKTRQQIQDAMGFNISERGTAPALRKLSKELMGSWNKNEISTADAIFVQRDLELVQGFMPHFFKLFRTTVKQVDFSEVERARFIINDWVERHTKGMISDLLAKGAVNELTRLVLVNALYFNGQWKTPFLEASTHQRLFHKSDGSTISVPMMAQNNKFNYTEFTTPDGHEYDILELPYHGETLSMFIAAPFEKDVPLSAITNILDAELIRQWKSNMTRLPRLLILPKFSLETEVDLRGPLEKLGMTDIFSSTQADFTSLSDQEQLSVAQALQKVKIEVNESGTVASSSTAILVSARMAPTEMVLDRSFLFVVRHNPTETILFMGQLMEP

[3] = biological target: B4; test: as above
[4] = biological target: T3, rabbit PAI-1 (rabbit); test: as above
T3 chain: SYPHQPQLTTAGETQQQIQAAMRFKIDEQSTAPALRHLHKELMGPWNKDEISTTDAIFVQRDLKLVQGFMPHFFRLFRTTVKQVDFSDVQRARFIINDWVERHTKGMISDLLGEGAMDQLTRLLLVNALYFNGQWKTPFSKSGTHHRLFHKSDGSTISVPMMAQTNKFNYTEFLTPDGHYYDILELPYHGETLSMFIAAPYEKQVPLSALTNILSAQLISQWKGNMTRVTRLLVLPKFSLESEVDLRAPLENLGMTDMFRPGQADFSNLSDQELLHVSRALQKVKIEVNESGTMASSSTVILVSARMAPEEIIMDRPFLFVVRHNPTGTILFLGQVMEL

[5] = biological target: glycosylated active human PAI-1 produced by CHO cells (human, UniProt P05121 24-402, N-glycosylated (CHO-produced)); test: cell-based or functional assay
[6] = biological target: T2, rat PAI-1; test: cell-based or functional assay
[7] = biological target: B4; test: cell-based or functional assay
[8] = biological target: T4, cynomolgus PAI-1 (cynomolgus, UniProt P05121 24-402 (human entry), limits assumed); test: cell-based or functional assay
[9] = biological target: T5, human PAI-1, active, wild-type, non-glycosylated (E. coli-derived) (human, UniProt P05121 24-402); test: cell-based or functional assay
[10] = biological target: T2, rat PAI-1; test: cell-based or functional assay; remark: listed apart in the source
[11] = biological target: B4; test: cell-based or functional assay; remark: listed apart in the source
[12] = biological target: T5, human PAI-1, active, wild-type, …; test: cell-based or functional assay; remark: listed apart in the source
[13] = biological target: B4; test: cell-based or functional assay; remark: listed apart in the source
[14] = biological target: T4, cynomolgus PAI-1; test: cell-based or functional assay; remark: listed apart in the source
[15] = biological target: T5, human PAI-1, active, wild-type, …; test: cell-based or functional assay; remark: listed apart in the source
[16] = biological target: T6, PICK167_A01-fgl IgG1 (CAT-1001); test: competition ELISA (DELFIA): PICK167_A01-fgl IgG1 (CAT-1001) coated on the plate, binding of biotinylated human PAI-1 detected with streptavidin-Eu3+ in the presence of a titration of the unlabelled test antigen (the varied molecule)
T6 construct: fully germlined variant, made as an IgG1 only; also called PICK67A01-fgl

[17] = biological target: PICK167_A01 IgG1; test: competition ELISA (DELFIA): PICK167_A01 IgG1 coated on the plate, binding of biotinylated human PAI-1 detected with streptavidin-Eu3+ in the presence of a titration of the unlabelled test antigen (the varied molecule)

B1: Antibody 20, IgG1, not germlined (antibody, V domains shown)
VH: QVQLQQSGAEVKKPGSSVKVSCKASGGTFSSYAISWVRQAPGQGLEWMGGIIPTFGTANYAQKFQGRVTITADESTSTAYMELSSLRSEDTAVYYCAREKRQWLEGHFDYWGRGTLVTVSS
VL: DIQMTQSPSTLSASVGDRVTITCRASEGIYHELAWYQQKPGKAPKLLIYRASSLASGVPSRFSGSRSGTEFTLTISSLQPDDFATYYCQQYSDYPLTFGGGTKVEIK
notes: whole IgG1; also called Ab 20
IC50 ratio latent/wt [1]: 7.5
IC50 ratio rat/wt [2]: 2.3
IC50 ratio mouse/wt [3]: 7.6
IC50 ratio rabbit/wt [4]: 9.1
IC50 chromogenic, hu glyco [5]: 1.3 nM
IC50 chromogenic [6]: 2.9 nM
IC50 ratio rat/human [6]: 1.8
IC50 chromogenic [7]: 1.4 nM
IC50 ratio mouse/human [7]: 0.9
IC50 chromogenic [8]: 0.8 nM
IC50 ratio cyno/human [8]: 0.5
IC50 chromogenic [9]: 1.6 nM
IC50 HT-1080 Exo PAI-1 [10]: 16.2 nM
IC50 HT-1080 Exo PAI-1 [11]: 5.9 nM
IC50 HT-1080 Exo PAI-1 [12]: 7.3 nM

B2: Antibody 27, IgG1, not germlined (antibody, V domains shown)
VH: QVQLQQSGAEVKKPGSSVKVSCKASGGAFSSYAISWVRQAPGQGLEWMGGIIPTFGTANYAQKFQGRVTITADESTSTAYMELSGLRSEDTAVYYCAREKRQWLEGHFDYWGRGTPVTVSS
VL: DIQMTQSPSFLSASIGDRVTITCRASEGIYHNLAWYQQKPGKAPKLLIYRASSLASGAPSRFSGSGSGTDFTLTISSLQPDDFATYYCQQYSNYPLTFGGGTKLEIK
notes: whole IgG1; also called Ab 27
IC50 ratio latent/wt [1]: 6.8
IC50 ratio rat/wt [2]: 1.2
IC50 ratio mouse/wt [3]: 6.1
IC50 ratio rabbit/wt [4]: 85
IC50 chromogenic, hu glyco [5]: 2.6 nM
IC50 chromogenic [6]: 26.5 nM
IC50 ratio rat/human [6]: 5.4
IC50 chromogenic [7]: 16.1 nM
IC50 ratio mouse/human [7]: 3.3
IC50 chromogenic [9]: 4.9 nM
IC50 HT-1080 Exo PAI-1 [10]: 16.1 nM
IC50 HT-1080 Exo PAI-1 [11]: 7.8 nM
IC50 HT-1080 Exo PAI-1 [12]: 10.9 nM

B3: Antibody 08, scFv (scFv, V domains shown)
VH: QVQLVQSGAEVKKPGSSVKVSCKASGGTFSSYAISWVRQAPGQGLEWMGGIIPTFGTANYAQKFQGRVTITADESTSTAYMELSSLRSEDTAVYYCARERRQWLEGHFDYWGRGTLVTVSS
VL: DIQMTQSPSTLSASVGDRVTITCRASEGIYHNLAWYQQKPGKAPKLLIYKASSLASGVPSRFSGSRSGTEFTLTISSLQPDDFATYYCQQYSNYPLTFGGGTKVEIK
IC50 chromogenic [6]: 3 nM
IC50 chromogenic [8]: 1 nM
IC50 chromogenic [9]: 3.2 nM
IC50 HT-1080 Exo PAI-1 [10]: 50.1 nM
IC50 HT-1080 Exo PAI-1 [11]: 26.2 nM
IC50 HT-1080 Exo PAI-1 [12]: 23.7 nM
IC50 chromogenic (FIG. 2d) [13]: 2.6 nM
IC50 chromogenic (FIG. 2b) [14]: 0.8 nM
IC50 chromogenic (FIG. 2a) [15]: 3.6 nM

B4
IC50 (read off the curve) [16]: ~2 nM
IC50 (read off the curve) [17]: ~4 nM
